Literature values, collected in article PMC8616177.
Where two headings read alike, the source gives them in different places.

Legend:
[1] = target: EGFR (Homo sapiens) (UniProt P00533)
[2] = target: EGFR (Homo sapiens) (UniProt P00533); remark: listed apart in the source

| Substance | Kd [1] | Kd [2] |
| --- | --- | --- |
| EGF (from UniProt P01133) | 1.5 nM | – |
| GE11 | – | 22 nM |
